This test concerns the target PD-1 antigen stably expressed on the surface of BB007 cells (UniProt Q15116). As to the kind of experiment: flow cytometry on BB007 cells; control, printed under the column 0 nM. (In general: A flow cytometer gives signals particle by particle.)

From patent publication US20190040138A1 come the findings set out here.

Chain of PD-1 antigen stably expressed on the surface of BB007 cells (Q15116 25-288 limits assumed): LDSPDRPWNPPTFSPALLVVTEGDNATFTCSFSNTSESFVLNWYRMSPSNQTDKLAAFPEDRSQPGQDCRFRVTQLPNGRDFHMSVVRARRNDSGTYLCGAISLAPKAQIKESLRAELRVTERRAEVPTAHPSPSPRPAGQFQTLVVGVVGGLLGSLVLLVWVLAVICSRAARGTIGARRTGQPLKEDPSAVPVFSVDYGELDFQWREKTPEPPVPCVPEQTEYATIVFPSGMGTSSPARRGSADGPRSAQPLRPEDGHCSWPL

Substance hIgG (antibody) showed a fluorescence intensity of 7.4.
